Source: paper PMC4584387 (Journal of Medicinal Chemistry, 2015)
Where no end group is shown, it is not given here.

Target: Full-length human menin (human, UniProt O00255 1-610)
Experiment: fluorescence polarisation

Chain of Full-length human menin (O00255 whole entry): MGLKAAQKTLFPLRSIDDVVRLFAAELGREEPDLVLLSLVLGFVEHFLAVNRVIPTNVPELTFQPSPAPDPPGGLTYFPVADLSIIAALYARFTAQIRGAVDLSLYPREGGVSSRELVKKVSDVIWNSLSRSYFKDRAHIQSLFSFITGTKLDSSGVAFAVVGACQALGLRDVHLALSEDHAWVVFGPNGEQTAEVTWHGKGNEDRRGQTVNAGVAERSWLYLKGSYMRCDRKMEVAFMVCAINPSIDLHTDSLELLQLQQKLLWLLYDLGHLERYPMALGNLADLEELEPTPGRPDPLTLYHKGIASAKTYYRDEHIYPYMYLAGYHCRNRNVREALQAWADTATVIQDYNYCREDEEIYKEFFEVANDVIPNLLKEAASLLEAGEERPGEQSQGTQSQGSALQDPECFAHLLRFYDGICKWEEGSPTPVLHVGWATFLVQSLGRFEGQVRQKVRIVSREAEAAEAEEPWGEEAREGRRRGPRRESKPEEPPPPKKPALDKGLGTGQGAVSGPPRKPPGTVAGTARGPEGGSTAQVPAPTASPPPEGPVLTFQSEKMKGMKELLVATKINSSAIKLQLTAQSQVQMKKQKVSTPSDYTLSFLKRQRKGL

- binding result: binds
Binder: SCRWRFPARPGT (peptide, UniProt Q03164 4-15, looked up, also: FITC label, position not given here) [FITC-MBM1 peptide of MLL (residues 4-15)]
